“Also recorded” adds a separate entry of the source.
Tests used:
[1] = molecular target: T1, HER3 (extracellular domain) (Homo sapiens, UniProt P21860); experiment: ELISA binding specificity on recombinant soluble EGFR, HER2, HER3; settings: plate coated with 1 μg/ml recombinant soluble EGFR, HER2 or HER3 extracellular domain
T1 construct: recombinant soluble EGFR, HER2, or the extracellular domain of HER3
Method: (§1) The average OD values of triplicates are presented. The values for egFR are superimposed on the values for HER2. […] EGFR, HER2 or HER3-transfected SP 2/0 cells were stained with 1 μg/ml of purified antibody, followed by PE-goat anti-mouse IgG.
(§2) An ELISA plate was coated with 1 μg/ml of recombinant soluble EGFR, HER2, or the extracellular domain of HER3.

[2] = molecular target: T2, HER3-transfected SP 2/0 cells (Homo sapiens, UniProt P21860); experiment: Flow cytometry binding specificity on transfected SP 2/0 cells; settings: EGFR, HER2 or HER3 transfected SP2/0 cells, 1 μg/ml purified antibody
T2 construct: expressed in transfected cells; host or cells: SP 2/0 cells
Method: as §1, §2

recombinant soluble HER3 [3] = molecular target: T3, recombinant soluble HER3 (Homo sapiens, UniProt P21860); experiment: ELISA for blocking of NRG1 binding to HER3; settings: 100 ng/ml biotin-conjugated NRG1, increasing antibody concentrations
T3 construct: coated with 1 μg/ml of recombinant soluble HER3
Description: (§3) The binding of NRG1 to HER3 (vertical axis) was detected by HRP-streptavidin. […] NRG1 binding was detected by PE-streptavidin. The mean fluorescent intensities (MFI) of NRG1 bound are presented.
(§4) The binding of NRG1 to HER3 was detected by HRP-streptavidin. […] Thus, the 1A5 antibody is herein referred to as a ligand-independent antibody. […] Thus, the 3D4 antibody is herein referred to as a ligand-dependent antibody. […] NRG1 binding was detected by PE-streptavidin.

[4] = molecular target: T2, HER3-transfected SP 2/0 cells; experiment: Flow cytometry for blocking of NRG1 binding to HER3; settings: 100 ng/ml biotin-conjugated NRG1, increasing antibody concentrations
Description: as §3, §4

recombinant soluble HER3 [5] = molecular target: T3, recombinant soluble HER3; experiment: Sandwich ELISA for epitopes (1A5 capture, HRP-3D4 detection); format: binding; settings: plate coated with 2 μg/ml 1A5, 200 ng/ml HRP-conjugated 3D4
Method: An ELISA plate was coated with 2 μg/ml of purified 1A5 and then incubated with indicated concentrations of recombinant soluble HER3 in the presence of 200 ng/ml HRP-conjugated 3D4. The binding of 3D4 to HER3 was detected by chemiluminescence substrate. The average counts per second of triplicates are presented.
An ELISA plate was coated with 2 μg/ml of purified 1A5 and then incubated with increasing concentrations of HER3 in the presence of 200 ng/ml HRP-conjugated 3D4. The binding of 3D4 antibody to HER3 was detected by chemiluminescence.

[6] = tested on: A549 human lung cancer xenograft; experiment: A549 human lung cancer xenograft model; format: in vivo
[7] = tested on: N87 human gastric cancer xenograft; experiment: N87 human gastric cancer xenograft model; format: in vivo; settings: in combination with lapatinib
[8] = tested on: MKN28 human gastric cancer xenograft; experiment: MKN28 human gastric cancer xenograft model; format: in vivo; settings: in combination with lapatinib
[9] = tested on: HT29 human colon cancer xenograft; experiment: HT29 human colon cancer xenograft model; format: in vivo
[10] = tested on: DR5-apoptosis resistant human breast cancer ZR75-1 cell line; experiment: Functional screen for apoptosis of DR5-resistant cells; format: cell-based; settings: in the presence of an agonistic DR5-antibody selected from TRA-8 or CTB006
Description: In a functional screen of a hybridoma library made against the DR5-apoptosis resistant human breast cancer ZR75-1 cell line, the 1A5 antibody was identified. […] The target of the 1A5 antibody was identified to be HER3 by immunoprecipitation with the 1A5 antibody and subsequent mass spectrometry analysis.

HER2 [11] = molecular target: T4, HER2 (Homo sapiens, UniProt P04626); experiment: HER2 autophosphorylation in pancreatic cancer cell lines; format: cell-based; design: endogenous in cells
HER3 [12] = molecular target: T5, HER3 (Homo sapiens, UniProt P21860); experiment: HER3 tyrosine phosphorylation ELISA, antibodies with or without tyrosine kinase inhibitor; format: cell-based; design: endogenous in cells; host or cells: N87; tyrosine phosphorylation of HER3: dose or concentration left out as unconfirmed; settings: 24 hours; for tyrosine phosphorylation levels of HER3: 20 μg/ml antibody
HER3 [13] = molecular target: T5, HER3; experiment: Ligand-independent activation (autophosphorylation) of HER3 in cancer cells, ELISA; format: cell-based; design: endogenous in cells; host or cells: N87, BT474, ZR75-30, Panc 2.03
Method: The ELISA plate was coated with 3F8 anti-HER3 antibody (recognizing a different epitope than 1A5 and 3D4) to capture total HER3 (Total HER3, right graph for FIGS. 4A-4D). […] The total HER3 was detected by HRP-conjugated 1E8 anti-HER3 antibody. The tyrosine-phosphorylated HER3 and total HER3 levels were then measured by chemiluminescence.
The ELISA plate was coated with 3F8 anti-HER3 antibody (recognizing a different epitope than the 1A5 antibody) to capture total HER3.

HER3 [14] = molecular target: T5, HER3; experiment: Ligand-dependent (NRG1) activation of HER3 in cancer cells, ELISA; format: cell-based; design: endogenous in cells; host or cells: N87, BT474, ZR75-30, Panc 2.03; settings: N87, BT474, ZR75-30, Panc 2.03 cells; antibody 24 hours, then 100 pg/ml NRG1 1 hour
Description: (§5) The ELISA plate was coated with 3F8 anti-HER3 antibody (recognizing a different epitope than 1A5 and 3D4) to capture total HER3.
as §5
An ELISA plate was coated with 3F8 anti-HER3 antibody to capture total HER3.

EGFR [15] = molecular target: T6, EGFR (Homo sapiens, UniProt P00533); experiment: EGFR autophosphorylation in pancreatic cancer cell lines; format: cell-based; design: endogenous in cells; host or cells: panel of eight pancreatic cancer cell lines
HER2 [16] = molecular target: T4, HER2; experiment: HER2 tyrosine phosphorylation ELISA, antibodies with or without lapatinib; format: cell-based; design: endogenous in cells; host or cells: N87 gastric cancer cells; ZR75-30 breast cancer cells; settings: 24 hours, without lapatinib
EGFR [17] = molecular target: T6, EGFR; experiment: EGFR tyrosine phosphorylation ELISA, antibodies with or without tyrosine kinase inhibitor; settings: 24 hours
HER3 [18] = molecular target: T5, HER3; experiment: HER3 autophosphorylation in pancreatic cancer cell lines; format: cell-based; design: endogenous in cells; host or cells: N87, BT474, ZR75-30, Panc 2.03, A549 and a panel of human cancer cell lines; settings: single agents

T2 sequence (P21860 20-1342): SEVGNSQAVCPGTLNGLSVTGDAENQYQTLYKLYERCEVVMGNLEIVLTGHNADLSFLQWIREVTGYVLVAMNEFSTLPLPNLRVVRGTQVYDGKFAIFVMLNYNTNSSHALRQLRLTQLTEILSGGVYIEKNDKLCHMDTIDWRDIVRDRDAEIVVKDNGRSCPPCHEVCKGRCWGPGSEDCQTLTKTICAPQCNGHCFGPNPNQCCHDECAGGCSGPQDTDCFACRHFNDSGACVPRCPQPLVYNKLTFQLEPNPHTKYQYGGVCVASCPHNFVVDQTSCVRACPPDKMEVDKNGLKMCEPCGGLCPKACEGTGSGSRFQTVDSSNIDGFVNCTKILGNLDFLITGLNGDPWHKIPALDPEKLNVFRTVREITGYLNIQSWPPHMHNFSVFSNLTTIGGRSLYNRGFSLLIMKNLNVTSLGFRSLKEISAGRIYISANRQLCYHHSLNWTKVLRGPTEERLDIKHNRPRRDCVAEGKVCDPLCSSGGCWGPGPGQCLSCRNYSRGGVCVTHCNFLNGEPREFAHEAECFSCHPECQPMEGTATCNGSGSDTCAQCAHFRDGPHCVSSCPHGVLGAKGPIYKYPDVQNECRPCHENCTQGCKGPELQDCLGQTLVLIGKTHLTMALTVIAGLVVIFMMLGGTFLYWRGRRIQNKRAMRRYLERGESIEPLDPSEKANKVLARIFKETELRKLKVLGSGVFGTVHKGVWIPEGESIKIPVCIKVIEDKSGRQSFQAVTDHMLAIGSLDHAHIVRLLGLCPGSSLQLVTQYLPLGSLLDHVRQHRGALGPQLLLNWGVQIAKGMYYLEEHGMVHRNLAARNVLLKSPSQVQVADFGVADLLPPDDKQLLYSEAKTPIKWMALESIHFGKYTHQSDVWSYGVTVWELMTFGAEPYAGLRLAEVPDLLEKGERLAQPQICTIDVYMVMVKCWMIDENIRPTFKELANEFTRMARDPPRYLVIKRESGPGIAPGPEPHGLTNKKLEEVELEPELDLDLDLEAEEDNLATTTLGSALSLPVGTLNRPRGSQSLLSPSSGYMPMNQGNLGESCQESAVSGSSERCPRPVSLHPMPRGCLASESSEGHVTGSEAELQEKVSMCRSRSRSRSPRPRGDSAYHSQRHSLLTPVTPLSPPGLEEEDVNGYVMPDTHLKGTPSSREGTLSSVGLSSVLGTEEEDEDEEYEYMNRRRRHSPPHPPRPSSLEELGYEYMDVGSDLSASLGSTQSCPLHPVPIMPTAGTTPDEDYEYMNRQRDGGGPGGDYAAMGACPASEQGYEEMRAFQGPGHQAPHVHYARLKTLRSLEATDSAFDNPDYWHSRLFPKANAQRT
T5 sequence (P21860 20-1342): as above
T3 sequence (P21860 20-643 limits assumed): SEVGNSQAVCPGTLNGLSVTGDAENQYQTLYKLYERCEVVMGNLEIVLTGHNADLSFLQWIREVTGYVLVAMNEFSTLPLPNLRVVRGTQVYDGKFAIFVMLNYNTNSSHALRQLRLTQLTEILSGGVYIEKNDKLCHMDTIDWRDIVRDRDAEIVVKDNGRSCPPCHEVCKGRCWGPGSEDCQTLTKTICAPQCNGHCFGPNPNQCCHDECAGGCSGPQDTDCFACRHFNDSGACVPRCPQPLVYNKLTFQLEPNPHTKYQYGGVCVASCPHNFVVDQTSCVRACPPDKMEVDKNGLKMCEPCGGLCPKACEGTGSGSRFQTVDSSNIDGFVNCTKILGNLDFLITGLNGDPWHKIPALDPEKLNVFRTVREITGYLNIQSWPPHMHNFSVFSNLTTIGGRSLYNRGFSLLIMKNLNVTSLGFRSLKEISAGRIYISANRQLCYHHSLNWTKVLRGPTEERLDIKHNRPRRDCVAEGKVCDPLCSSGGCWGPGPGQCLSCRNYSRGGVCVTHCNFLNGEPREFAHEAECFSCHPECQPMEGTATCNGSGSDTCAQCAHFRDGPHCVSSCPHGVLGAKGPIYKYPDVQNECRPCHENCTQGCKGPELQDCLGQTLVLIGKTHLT
T1 sequence (P21860 20-643 limits assumed): as above

B1: 1A5: ligand-independent HER3 antibody; heavy chain variable region SEQ ID NO:1, light chain variable region SEQ ID NO:2 (antibody, V domains shown)
VH: MEWIWIFLFIFSGTAGVHSQVQLQQSGAELARPGASVKLSCKASGYTFTDNYINWMKQRPGQGLEWIGEIYPGSGNTYYNEKFKGKATLTADKSSSTAYMQLSSLTSEESAVYFCARSPNLRLYYFDYWGQGTTLTVSS
VL: MVSTSQLLGLLLFWTSASRCDIVMTQSPATLSVTPGDRVSLSCRASQSINDYLYWYQQKLHESPRLLIKFASHSISGIPSRFSGSGSGSDFTLSINSVEPEDVGVYYCQNGHSFPLTFGAGTKLELK
[1]
  binding specificity by ELISA: specifically bind HER3; also recorded: specific binding
[2]
  binding specificity by flow cytometry: specifically bind HER3
Recombinant soluble HER3 [3]
  blocking of NRG1 binding to HER3 (ELISA): failed in block NRG1 binding to HER3; also recorded: does not block ligand binding to HER3
[4]
  blocking of NRG1 binding to HER3 (flow cytometry): failed to block NRG1 binding to HER3; also recorded: does not block ligand binding to HER3
Recombinant soluble HER3 [5]
  epitopes of HER3 bound: bind different epitopes of HER3; also recorded: recognize different epitopes on HER3
[6]; antibodies without Erbitux
  tumor volume: reduced tumor volume
[6]; in combination with Erbitux
  tumor volume: reduced tumor volume more than administration of Erbitux alone
[7]
  tumor volume: synergistically reduces tumor volume
[8]
  tumor volume: synergistically reduces tumor volume
[9]; antibodies or lapatinib alone
  tumor volume: had the greatest tumor volume reducing effect; also recorded: reduces tumor volume
[9]; in combination with lapatinib
  tumor volume: synergistically reduces tumor volume
[10]
  apoptosis of DR5-resistant ZR75-1 cells: apoptosis of the DR5-resistant ZR75-1 cells was observed
HER2 [11]; in combination with lapatinib
  autophosphorylation of HER2, 1A5 with lapatinib: significantly reduced levels of HER2 autophosphorylation; also recorded: reduced the levels of HER2 autophosphorylation to a greater extent than the 1A5 antibody or lapatinib alone
HER2 [11]; single agents
  autophosphorylation of HER2: partially inhibited autophosphorylation of HER2
HER3 [12]; A549 cells, 20 μg/ml antibody with 100 nM Erlotinib
  tyrosine phosphorylation levels of HER3, effect of adding Erlotinib: enhanced
HER3 [12]; A549 cells, without Erlotinib
  tyrosine phosphorylation levels of HER3: reduced the tyrosine-phosphorylation levels of HER3
HER3 [12]; N87 cells, without lapatinib
  tyrosine phosphorylation of HER3: reduced the tyrosine phosphorylation of HER3
HER3 [12]; N87 cells, with 100 nM lapatinib
  tyrosine phosphorylation of HER3, effect of adding lapatinib: enhanced
HER3 [12]; ZR75-30 cells, 20 μg/ml antibody with 100 nM lapatinib
  tyrosine phosphorylation levels of HER3, effect of adding lapatinib: enhanced
HER3 [12]; ZR75-30 cells, without lapatinib
  tyrosine phosphorylation levels of HER3: reduced the tyrosine phosphorylation levels of HER3
HER3 [13]; 20 μg/ml 1A5, 24 hours
  inhibition of ligand-independent activation of HER3 in a panel of human cancer cell lines: inhibition of ligand-independent activation of HER3 in a panel of human cancer cells lines
HER3 [13]; N87, BT474, ZR75-30, Panc 2.03 cells, increasing concentrations, 24 hours
  inhibition of autophosphorylation of HER3: capable of inhibiting autophosphorylation of HER3 to a greater extent than the ligand-dependent 3D4 antibody; also recorded: dose-dependent inhibition of ligand-independent activation (autophosphorylation) of HER3
HER3 [14]
  inhibition of ligand-dependent activation of HER3: capable of inhibiting ligand-dependent activation of HER3 to a lesser extent than the ligand-dependent 3D4 antibody
EGFR [15]; in combination with erlotinib
  autophosphorylation of EGFR, 1A5 with erlotinib: capable of enhancing the inhibitory activity of erlotinib; also recorded: able to enhance the inhibitory activity of erlotinib
EGFR [15]; in combination with lapatinib
  autophosphorylation of EGFR, 1A5 with lapatinib: not able to enhance the activity of lapatinib
EGFR [15]; single agents
  autophosphorylation of EGFR: partially inhibited EGFR autophosphorylation in a HER3-dependent fashion
HER2 [16]; N87 cells
  tyrosine phosphorylation level of HER2: did not affect the level of tyrosine phosphorylation for EGFR or HER2
HER2 [16]; ZR75-30 cells, 20 μg/ml antibody
  tyrosine phosphorylation levels of HER2: did not affect tyrosine phosphorylation levels of HER2
EGFR [17]; A549 cells, 20 μg/ml antibody, without Erlotinib
  tyrosine phosphorylation levels of EGFR: did not affect tyrosine phosphorylation levels of EGFR
EGFR [17]; N87 cells, 20 mg/ml antibody, without lapatinib
  tyrosine phosphorylation level of EGFR: did not affect the level of tyrosine phosphorylation for EGFR or HER2
HER3 [18]
  autophosphorylation of HER3: inhibited autophosphorylation of HER3 in all HER3 positive cell lines except for Panc1; also recorded: inhibited autophosphorylation of HER3 in all HER3 positive cell lines, except Panc 1

From US9637543B2, “HER3 antibodies and uses thereof” (THE UAB RESEARCH FOUNDATION, priority 2011, dated 2017)
